Assay [1] addresses IGF-II (insulin-like growth factor II) (UniProt P01344). The assay is described as follows: method not stated in the legend (presumably BIAcore). For orientation: In SPR one partner is held on a chip, and binding of the other changes the refractive index at the surface.
Assay [2] deals with IGF-I (insulin-like growth factor I) (UniProt P05019). Described as above.
Assay [3] has the same target. The assay is described as follows: SPR (BIAcore) on immobilised IGF-I; text summing up Table 2.
Assay [4] has as its target IGF-II (insulin-like growth factor II) (UniProt P01344). The assay is described as follows: SPR (BIAcore) on immobilised IGF-II; text summing up Table 3.
The target in assay [5] is IGF-I (insulin-like growth factor I) (UniProt P05019). The assay is described as follows: SPR (BIAcore), IGF-I amine-coupled to CM5 chip; ratio against hIGFBP-2.
Assay [6] deals with IGF-II (insulin-like growth factor II) (UniProt P01344). The assay is described as follows: SPR (BIAcore), IGF-II amine-coupled to CM5 chip; ratio against hIGFBP-2.
Assay [7] has as its target IGF-I (insulin-like growth factor I) (UniProt P05019). The assay is described as follows: SPR (BIAcore), IGF-I amine-coupled to CM5 chip, IGFBP-2 as analyte, Langmuir 1:1 fit.
Assay [8] concerns the target IGF-II (insulin-like growth factor II) (UniProt P01344). The assay is described as follows: SPR (BIAcore), IGF-II amine-coupled to CM5 chip, IGFBP-2 as analyte, Langmuir 1:1 fit.

Chain of IGF-I (insulin-like growth factor I) (P05019 49-118 limits assumed): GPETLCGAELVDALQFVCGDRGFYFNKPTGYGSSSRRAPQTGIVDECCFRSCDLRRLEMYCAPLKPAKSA
Chain of IGF-II (insulin-like growth factor II) (P01344 25-91 limits assumed): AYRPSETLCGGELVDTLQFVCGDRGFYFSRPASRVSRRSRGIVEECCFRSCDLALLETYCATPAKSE

“Des (114-170) K180A K181A hIGFBP-2 (from UniProt P18065 36-113; P18065 207-325)” gave a fold lower affinity (reference not named, presumably native IGFBP-2) in assay [1] of 2 fold.
“Des(114-170)His hIGFBP-2 (from UniProt P18065 36-113; P18065 207-325)”: in assay [2], the fold lower affinity (reference not named, presumably native IGFBP-2) stood at 2 fold. Moreover, the fold decrease in affinity against native hIGFBP-2 came out at 5 fold in assay [3] and 2 fold in assay [4]. The Rel. KD (KD of hIGFBP-2/KD of hIGFBP-2 mutant) in assay [5] is 0.26; in assay [6], 0.51. Besides, the figures for the Kd in assay [7] and in assay [8] were 3.63 nM and 1.14 nM, respectively. For the same substance, the koff turned out to be 0.000425 s⁻¹ in assay [7] and 0.00013 s⁻¹ in assay [8]. For the same substance, the kon in assay [7] worked out at 117000 M⁻¹ s⁻¹; in assay [8] it was 114000 M⁻¹ s⁻¹.

Usually Kd stands for the constant that tells how readily two partners part at equilibrium. A high value points to a looser complex. By koff is commonly meant a measure of how fast the partners let go of each other. Higher therefore signals a short-lived complex. A word on the kon: it is the rate constant with which the complex forms. A high value points to fast association.

Values taken from patent US20060153853A1.
